This is an account of results in patent publication US10138280B2, “Polypeptides targeting glycosylated MUC2 proteins, methods of synthesis, their nucleic acids and uses thereof” (INSTITUT PASTEUR, priority 2011, dated 2018).

In one assay the test system is guinea pig colonic mucus. Nature of the assay: Mucus staining on fixed tissues, guinea pig colon. Particulars: fixed tissue, 1 μg/mL. Here is the method:
FIGS. 11A-11C. Mucus staining using Cy5-MUB70 on fixed tissues. (FIG. 11A) Guinea pig colon, (FIG. 11B) rabbit ileum and (FIG. 11C) mouse colon were fixed in PFA 4%. Immunofluorescent staining was performed using Cy5-MUB70 (1 μg/mL) (blue). Actin is stained in red (Phall.-RRX), Muc2 is stained in green (α-Muc2). Observations were performed using a confocal microscope. Bar is 50 μm.
Ex vivo human colon samples were obtained from Dr. E. Labruyère (Institut Pasteur) and tissue processing was performed as described previously and stored in serum free RMPI media (surgical procedure is described herein). Human mucinous carcinoma formamide fixed samples were obtained from Dr. T. Lazure (Hôpitaux Universitaires Paris-Sud, Kremlin-Bicêtre) and Pr. I. Sobhani (Hôpital Henri Mondor, Créteil). Rabbit colon and ileum samples were collected on naïve New Zealand white rabbits weighting 2.5-3 kg and fixed in PFA 3%. Same procedure was applied on intestine samples collected on guinea pigs (Charles River) and C57/B6 mice (Janvier).
Following PFA 4% or Carnoy fixation, as indicated, samples were washed in PBS, incubated at 4° C. in PBS containing 12% sucrose for 90 min, then in PBS with 18% sucrose overnight, and frozen in OCT (Sakura) on dry ice. 7 μm sections were obtained using a cryostat CM-3050 (Leica). […]

In assay [1] the target is T1, mucus of human colonic mucinous carcinomas (Muc2) (Homo sapiens, UniProt Q02817).
T1 construct: five different samples collected from patients diagnosed with colonic mucinous carcinomas; from tissue; host or cells: human colonic mucinous carcinoma samples, fixed, paraffin embedded
Nature of the assay: Fluorescent staining of human colonic mucinous carcinoma samples. Here is the method: FIGS. 24A-24B. Comparative human colonic mucus staining using MUB70-Cy5 on healthy tissues and mucinous carcinomas (Coic et al, JBC, 2012 (41)). Fluorescent staining of human colonic mucus was performed by the addition of 1 μg/mL of the corresponding Cy5-conjugated peptides with Phalloidin-RRX (1:100) on formol fixed, paraffin embedded samples. Image acquisition was performed using a fluorescent confocal microscope (see Methods).
Ex vivo human colon samples were obtained from Dr. E. Labruyère (Institut Pasteur) and tissue processing was performed as described previously and stored in serum free RMPI media (surgical procedure is described herein). Human mucinous carcinoma formamide fixed samples were obtained from Dr. T. Lazure (Hôpitaux Universitaires Paris-Sud, Kremlin-Bicêtre) and Pr. I. Sobhani (Hôpital Henri Mondor, Créteil). Rabbit colon and ileum samples were collected on naïve New Zealand white rabbits weighting 2.5-3 kg and fixed in PFA 3%. […]
As colonic mucinous carcinomas are characterized by abnormal overproduction of Muc2 in the colon mucosa (40), the inventors have hypothesized that Cy5-MUB70 could be used as a novel fluorescent marker for the diagnosis of this pathology. […] As shown previously on a healthy colon (FIG. 3B), the luminal mucus secreted fraction is detected by Cy5-MUB70 (FIG. 24A, top panel). […]

B1: Cy5-MUB70: Cy5-labelled MUB70 polypeptide, labelled via Cy5 maleimide on N-terminal cysteine (conjugate)
peptide: CVHVQYIDGETDQMLRQDDLDGYTDETIPYSTAEGIKKFEGDGYELFKDNFPAGEKFDNDDTNDQFYTVIF
In the case of B1, the colonic mucus staining result in the assay with guinea pig colonic mucus is recorded as “confirmed”. Also, the “staining of colonic mucinous carcinoma samples” value in assay [1] (five samples from patients, 1 μg/mL) is reported as “specific staining was observed within the mucus accumulation areas”. The “colocalization with Muc2 in colonic mucinous carcinomas” value in assay [1] (mucus accumulation within the colonic mucosa, associated with tumor cells) is “colocalizes with the presence of Muc2”.
